Test results from US20140050720A1 (Scripps Research, published 2014).

biological target: GLP-1 receptor on HEK293 cells carrying a cAMP responsive luciferase reporter gene (UniProt P43220 24-463, limits assumed); experiment: cell-based or functional assay

| Binder | RLU (cAMP responsive luciferase reporter) at 1.26953 nM [RLU] | RLU (cAMP responsive luciferase reporter) at 2.53906 nM [RLU] | RLU (cAMP responsive luciferase reporter) at 5.07813 nM [RLU] | RLU (cAMP responsive luciferase reporter) at 10.15625 nM [RLU] | RLU (cAMP responsive luciferase reporter) at 20.3125 nM [RLU] | RLU (cAMP responsive luciferase reporter) at 40.625 nM [RLU] | RLU (cAMP responsive luciferase reporter) at 81.25 nM [RLU] | RLU (cAMP responsive luciferase reporter) at 162.5 nM [RLU] | RLU (cAMP responsive luciferase reporter) at 325 nM [RLU] | RLU (cAMP responsive luciferase reporter) at 650 nM [RLU] |
| --- | --- | --- | --- | --- | --- | --- | --- | --- | --- | --- |
| BLV1H12-GLP-1 fusion antibody (antibody, human IgG1) heavy: not shown light: QAVLNQPSSVSGSLGQRVSITCSGSSSNVGNGYVSWYQLIPGSAPRTLIYGDTSRASGVPDRFSGSRSGNTATLTISSLQAEDEADYFCASAEDSSSNAVFGSGTTLTVLGQPKSPPSVTLFPPSTEELNGNKATLVCLISDFYPGSVTVVWKADGSTITRNVETTRASKQSNSKYAASSYLSLTSSDWKSKGSYSCEVTHEGSTVTKTVKPSECS | 18600 | 24500 | 43200 | 66600 | 105000 | 144000 | 151000 | 167000 | 171000 | 160000 |
| BLV1H12-GLP-1 clip fusion antibody (antibody, cleaved by Factor Xa at the IEGR site in front of GLP-1, releasing the N-terminus of GLP-1) heavy: not shown light: QAVLNQPSSVSGSLGQRVSITCSGSSSNVGNGYVSWYQLIPGSAPRTLIYGDTSRASGVPDRFSGSRSGNTATLTISSLQAEDEADYFCASAEDSSSNAVFGSGTTLTVLGQPKSPPSVTLFPPSTEELNGNKATLVCLISDFYPGSVTVVWKADGSTITRNVETTRASKQSNSKYAASSYLSLTSSDWKSKGSYSCEVTHEGSTVTKTVKPSECS | 4740 | 5800 | 4400 | 5200 | 7780 | 13600 | 33800 | 65800 | 101000 | 141000 |
| BLV1H12-Ex-4 fusion antibody (antibody, human IgG1) heavy: not shown light: QAVLNQPSSVSGSLGQRVSITCSGSSSNVGNGYVSWYQLIPGSAPRTLIYGDTSRASGVPDRFSGSRSGNTATLTISSLQAEDEADYFCASAEDSSSNAVFGSGTTLTVLGQPKSPPSVTLFPPSTEELNGNKATLVCLISDFYPGSVTVVWKADGSTITRNVETTRASKQSNSKYAASSYLSLTSSDWKSKGSYSCEVTHEGSTVTKTVKPSECS | 6120 | 6360 | 8500 | 10400 | 19300 | 28000 | 54800 | 90700 | 118000 | 135000 |

same assay, conditions: not given

| Binder | RLU (cAMP responsive luciferase reporter) at 1300 nM [RLU] |
| --- | --- |
| BLV1H12-GLP-1 fusion antibody (antibody, human IgG1) heavy: not shown light: QAVLNQPSSVSGSLGQRVSITCSGSSSNVGNGYVSWYQLIPGSAPRTLIYGDTSRASGVPDRFSGSRSGNTATLTISSLQAEDEADYFCASAEDSSSNAVFGSGTTLTVLGQPKSPPSVTLFPPSTEELNGNKATLVCLISDFYPGSVTVVWKADGSTITRNVETTRASKQSNSKYAASSYLSLTSSDWKSKGSYSCEVTHEGSTVTKTVKPSECS | 185000 |
| BLV1H12-GLP-1 clip fusion antibody (antibody, cleaved by Factor Xa at the IEGR site in front of GLP-1, releasing the N-terminus of GLP-1) heavy: not shown light: QAVLNQPSSVSGSLGQRVSITCSGSSSNVGNGYVSWYQLIPGSAPRTLIYGDTSRASGVPDRFSGSRSGNTATLTISSLQAEDEADYFCASAEDSSSNAVFGSGTTLTVLGQPKSPPSVTLFPPSTEELNGNKATLVCLISDFYPGSVTVVWKADGSTITRNVETTRASKQSNSKYAASSYLSLTSSDWKSKGSYSCEVTHEGSTVTKTVKPSECS | 169000 |
| BLV1H12-Ex-4 fusion antibody (antibody, human IgG1) heavy: not shown light: QAVLNQPSSVSGSLGQRVSITCSGSSSNVGNGYVSWYQLIPGSAPRTLIYGDTSRASGVPDRFSGSRSGNTATLTISSLQAEDEADYFCASAEDSSSNAVFGSGTTLTVLGQPKSPPSVTLFPPSTEELNGNKATLVCLISDFYPGSVTVVWKADGSTITRNVETTRASKQSNSKYAASSYLSLTSSDWKSKGSYSCEVTHEGSTVTKTVKPSECS | 160000 |
